Results on four molecules are retold here after patent US20190077860A1 (EISAI R AND D MANAGEMENT, published 2019).

What all share (assay): ELISA
Background: In an ELISA, binding on a coated surface is turned into a signal by an enzyme label.

The target of test [1] is T1, human EphA3 extracellular region-SEAP-His protein (human, UniProt P29320 21-541).
T1 construct: extracellular domain; also called hEphA3-SEAP-His
T1 sequence (looked up): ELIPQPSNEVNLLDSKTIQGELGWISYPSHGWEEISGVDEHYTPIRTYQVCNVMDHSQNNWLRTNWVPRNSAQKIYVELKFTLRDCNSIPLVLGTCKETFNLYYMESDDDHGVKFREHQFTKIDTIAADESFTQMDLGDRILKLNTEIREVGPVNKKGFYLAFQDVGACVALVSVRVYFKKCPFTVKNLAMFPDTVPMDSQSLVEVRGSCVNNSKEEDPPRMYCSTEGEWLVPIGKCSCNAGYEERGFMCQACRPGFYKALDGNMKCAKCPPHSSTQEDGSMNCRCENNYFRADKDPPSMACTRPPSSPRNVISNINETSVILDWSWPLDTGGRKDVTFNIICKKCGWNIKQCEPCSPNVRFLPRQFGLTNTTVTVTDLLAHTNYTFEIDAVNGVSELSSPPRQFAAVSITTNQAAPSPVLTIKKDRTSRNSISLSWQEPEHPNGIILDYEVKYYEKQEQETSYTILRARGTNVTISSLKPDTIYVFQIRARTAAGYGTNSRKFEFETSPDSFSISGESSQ

Test [2] has as its target T2, human EphA5 extracellular region-SEAP-His protein (human, UniProt P54756 25-573).
T2 construct: extracellular domain; also called hEphA5-SEAP-His

Test [3] deals with T3, human EphA7 extracellular region-SEAP-His protein (human, UniProt Q15375 28-555).
T3 construct: extracellular domain; also called hEphA7-SEAP-His
T3 sequence (looked up): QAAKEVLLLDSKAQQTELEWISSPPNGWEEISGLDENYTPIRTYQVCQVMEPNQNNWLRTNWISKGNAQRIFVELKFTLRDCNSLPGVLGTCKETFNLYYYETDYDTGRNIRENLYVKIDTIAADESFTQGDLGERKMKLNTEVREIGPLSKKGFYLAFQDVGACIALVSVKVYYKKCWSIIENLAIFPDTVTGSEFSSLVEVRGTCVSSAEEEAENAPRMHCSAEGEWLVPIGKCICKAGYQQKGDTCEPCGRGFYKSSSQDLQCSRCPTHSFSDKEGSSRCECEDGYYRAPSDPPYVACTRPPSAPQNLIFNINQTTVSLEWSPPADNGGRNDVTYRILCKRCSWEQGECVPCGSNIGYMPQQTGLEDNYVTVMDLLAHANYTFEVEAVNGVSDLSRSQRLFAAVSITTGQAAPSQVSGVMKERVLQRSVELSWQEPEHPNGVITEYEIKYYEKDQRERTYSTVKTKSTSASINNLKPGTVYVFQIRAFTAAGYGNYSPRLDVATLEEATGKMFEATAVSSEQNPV

Test [4] addresses T4, human EphB3 extracellular region-SEAP-His protein (human, UniProt P54753 34-559).
T4 construct: extracellular domain; also called hEphB3-SEAP-His
T4 sequence (looked up): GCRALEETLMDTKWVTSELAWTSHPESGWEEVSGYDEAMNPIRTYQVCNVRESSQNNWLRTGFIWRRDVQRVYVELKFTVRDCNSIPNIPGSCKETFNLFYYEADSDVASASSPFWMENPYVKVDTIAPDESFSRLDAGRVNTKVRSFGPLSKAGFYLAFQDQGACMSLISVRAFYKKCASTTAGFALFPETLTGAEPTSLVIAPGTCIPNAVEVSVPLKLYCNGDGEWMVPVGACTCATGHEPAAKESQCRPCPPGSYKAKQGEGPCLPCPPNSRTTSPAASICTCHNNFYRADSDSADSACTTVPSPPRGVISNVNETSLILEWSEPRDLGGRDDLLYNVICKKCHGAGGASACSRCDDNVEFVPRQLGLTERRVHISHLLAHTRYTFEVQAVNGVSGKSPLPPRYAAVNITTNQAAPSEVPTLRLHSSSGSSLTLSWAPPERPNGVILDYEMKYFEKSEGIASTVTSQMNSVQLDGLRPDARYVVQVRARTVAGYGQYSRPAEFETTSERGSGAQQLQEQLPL

Test [5] has as its target T5, human EphB4 extracellular region-SEAP-His protein (human, UniProt P54760 16-539).
T5 construct: extracellular domain; also called hEphB4-SEAP-His
T5 sequence (looked up): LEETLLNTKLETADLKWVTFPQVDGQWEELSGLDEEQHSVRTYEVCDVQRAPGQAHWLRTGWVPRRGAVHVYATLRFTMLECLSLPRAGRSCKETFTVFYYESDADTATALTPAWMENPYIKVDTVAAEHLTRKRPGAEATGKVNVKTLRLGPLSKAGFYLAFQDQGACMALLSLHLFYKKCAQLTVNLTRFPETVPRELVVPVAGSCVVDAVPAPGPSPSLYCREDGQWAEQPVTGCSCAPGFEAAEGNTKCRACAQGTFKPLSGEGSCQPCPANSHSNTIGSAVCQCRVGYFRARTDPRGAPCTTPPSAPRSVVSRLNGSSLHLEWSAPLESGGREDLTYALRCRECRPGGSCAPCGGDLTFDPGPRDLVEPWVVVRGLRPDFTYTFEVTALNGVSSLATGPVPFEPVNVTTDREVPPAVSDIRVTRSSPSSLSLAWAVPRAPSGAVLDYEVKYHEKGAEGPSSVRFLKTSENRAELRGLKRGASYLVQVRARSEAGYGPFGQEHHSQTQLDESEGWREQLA

T2 sequence (P54756 25-573): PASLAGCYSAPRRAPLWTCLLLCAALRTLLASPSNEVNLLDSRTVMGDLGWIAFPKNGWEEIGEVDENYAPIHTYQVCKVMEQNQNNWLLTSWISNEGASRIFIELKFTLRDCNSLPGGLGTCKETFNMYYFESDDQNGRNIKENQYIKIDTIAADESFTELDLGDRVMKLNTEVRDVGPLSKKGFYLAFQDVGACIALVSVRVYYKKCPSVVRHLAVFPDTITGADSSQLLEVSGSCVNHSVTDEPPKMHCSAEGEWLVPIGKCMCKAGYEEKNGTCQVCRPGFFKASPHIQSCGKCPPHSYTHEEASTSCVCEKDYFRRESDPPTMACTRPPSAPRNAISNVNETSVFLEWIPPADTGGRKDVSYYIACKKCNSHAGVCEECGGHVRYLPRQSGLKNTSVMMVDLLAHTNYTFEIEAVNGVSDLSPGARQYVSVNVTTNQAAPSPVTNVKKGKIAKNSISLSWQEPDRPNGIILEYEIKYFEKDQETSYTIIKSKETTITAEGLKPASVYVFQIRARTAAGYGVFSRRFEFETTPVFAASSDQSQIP

B1: humanized antibody No. 88 (antibody, human IgG1, kappa)
heavy: QVQLVQSGSELKKPGASVKVSCKASGYTFTDYSMHWVRQAPGQGLKWMGWINTETGEPTYAQGFTGRFVFSLDTSVSTAYLQISSLKAEDTAVYYCARIPLYYYGSRYWYFDVWGQGTTVTVSSASTKGPSVFPLAPSSKSTSGGTAALGCLVKDYFPEPVTVSWNSGALTSGVHTFPAVLQSSGLYSLSSVVTVPSSSLGTQTYICNVNHKPSNTKVDKRVEPKSCDKTHTCPPCPAPPAAAPSVFLFPPKPKDTLMISRTPEVTCVVVDVSHEDPEVQFNWYVDGVEVHNAKTKPREEQFNSTFRVVSVLTVVHQDWLNGKEYKCKVSNKGLPAPIEKTISKTKGQPREPQVYTLPPSREEMTKNQVSLTCLVKGFYPSDIAVEWESNGQPENNYKTTPPMLDSDGSFFLYSKLTVDKSRWQQGNVFSCSVMHEALHNHYTQKSLSLSPG
light: DIQMTQSPSSLSASVGDRVTITCRASENIYRNLAWYQQKPGKAPQLLLYAATNLADGVPSRFSGSGSGTDYTLTISSLQPEDFATYYCQHFWGTPWTFGQGTKVEIKRTVAAPSVFIFPPSDEQLKSGTASVVCLLNNFYPREAKVQWKVDNALQSGNSQESVTEQDSKDSTYSLSSTLTLSKADYEKHKVYACEVTHQGLSSPVTKSFNRGEC
notes: human Ig kappa; also called L1-6/HA2
Regarding B1, the “A450 as % of hEphA4-SEAP-His” value came to 6% in test [1]; 5.9% in test [2]; 6% in test [3]; 6.3% in test [4]; 6.1% in test [5].

B2: humanized antibody No. 90 (antibody, human IgG1, kappa)
heavy: QVQLVQSGSELKKPGASVKVSCKASGYTFTDYSMHWVRQAPGQGLEWMGWINTETGEPTYADDFKGRFVFSLDTSVSTAYLQISSLKAEDTAVYYCARIPLYYYGSRYWYFDVWGQGTTVTVSSASTKGPSVFPLAPSSKSTSGGTAALGCLVKDYFPEPVTVSWNSGALTSGVHTFPAVLQSSGLYSLSSVVTVPSSSLGTQTYICNVNHKPSNTKVDKRVEPKSCDKTHTCPPCPAPPAAAPSVFLFPPKPKDTLMISRTPEVTCVVVDVSHEDPEVQFNWYVDGVEVHNAKTKPREEQFNSTFRVVSVLTVVHQDWLNGKEYKCKVSNKGLPAPIEKTISKTKGQPREPQVYTLPPSREEMTKNQVSLTCLVKGFYPSDIAVEWESNGQPENNYKTTPPMLDSDGSFFLYSKLTVDKSRWQQGNVFSCSVMHEALHNHYTQKSLSLSPG
light: DIQMTQSPSSLSASVGDRVTITCRASENIYRNLAWYQQKPGKAPQLLLYAATNLADGVPSRFSGSGSGTDYTLTISSLQPEDFATYYCQHFWGTPWTFGQGTKVEIKRTVAAPSVFIFPPSDEQLKSGTASVVCLLNNFYPREAKVQWKVDNALQSGNSQESVTEQDSKDSTYSLSSTLTLSKADYEKHKVYACEVTHQGLSSPVTKSFNRGEC
notes: human Ig kappa; also called L1-6/HK1
With B2, the “A450 as % of hEphA4-SEAP-His” value in test [1] was found to be 5.2%; in test [2] it was 5.1%; in test [3], 4.9%; in test [4], 5.1%; in test [5], 5%.

B3: humanized antibody No. 89 (antibody, human IgG1, kappa)
heavy: QIQLVQSGSELKKPGASVKVSCKASGYTFTDYSMHWVRQAPGQGLKWMGWINTETGEPTYAQGFTGRFVFSLDTSVSTAYLQISSLKAEDTAVYYCARIPLYYYGSRYWYFDVWGQGTTVTVSSASTKGPSVFPLAPSSKSTSGGTAALGCLVKDYFPEPVTVSWNSGALTSGVHTFPAVLQSSGLYSLSSVVTVPSSSLGTQTYICNVNHKPSNTKVDKRVEPKSCDKTHTCPPCPAPPAAAPSVFLFPPKPKDTLMISRTPEVTCVVVDVSHEDPEVQFNWYVDGVEVHNAKTKPREEQFNSTFRVVSVLTVVHQDWLNGKEYKCKVSNKGLPAPIEKTISKTKGQPREPQVYTLPPSREEMTKNQVSLTCLVKGFYPSDIAVEWESNGQPENNYKTTPPMLDSDGSFFLYSKLTVDKSRWQQGNVFSCSVMHEALHNHYTQKSLSLSPG
light: DIQMTQSPSSLSASVGDRVTITCRASENIYRNLAWYQQKPGKAPQLLLYAATNLADGVPSRFSGSGSGTDYTLTISSLQPEDFATYYCQHFWGTPWTFGQGTKVEIKRTVAAPSVFIFPPSDEQLKSGTASVVCLLNNFYPREAKVQWKVDNALQSGNSQESVTEQDSKDSTYSLSSTLTLSKADYEKHKVYACEVTHQGLSSPVTKSFNRGEC
notes: human Ig kappa; also called L1-6/HA4
As to B3, the “A450 as % of hEphA4-SEAP-His” value in test [1] amounted to 5.8%; in test [2] it was 5.8%; in test [3], 5.4%; in test [4], 5.7%; in test [5], 5.8%.

B4: humanized antibody No. 91 (antibody, human IgG1, kappa)
heavy: QVQLVQSGSELKKPGASVKVSCKASGYTFTDYSMHWVRQAPGQGLKWMGWINTETGEPTYADDFKGRFVFSLDTSVSTAYLQISSLKAEDTAVYYCARIPLYYYGSRYWYFDVWGQGTTVTVSSASTKGPSVFPLAPSSKSTSGGTAALGCLVKDYFPEPVTVSWNSGALTSGVHTFPAVLQSSGLYSLSSVVTVPSSSLGTQTYICNVNHKPSNTKVDKRVEPKSCDKTHTCPPCPAPPAAAPSVFLFPPKPKDTLMISRTPEVTCVVVDVSHEDPEVQFNWYVDGVEVHNAKTKPREEQFNSTFRVVSVLTVVHQDWLNGKEYKCKVSNKGLPAPIEKTISKTKGQPREPQVYTLPPSREEMTKNQVSLTCLVKGFYPSDIAVEWESNGQPENNYKTTPPMLDSDGSFFLYSKLTVDKSRWQQGNVFSCSVMHEALHNHYTQKSLSLSPG
light: DIQMTQSPSSLSASVGDRVTITCRASENIYRNLAWYQQKPGKAPQLLLYAATNLADGVPSRFSGSGSGTDYTLTISSLQPEDFATYYCQHFWGTPWTFGQGTKVEIKRTVAAPSVFIFPPSDEQLKSGTASVVCLLNNFYPREAKVQWKVDNALQSGNSQESVTEQDSKDSTYSLSSTLTLSKADYEKHKVYACEVTHQGLSSPVTKSFNRGEC
notes: human Ig kappa; also called L1-6/HK2
With B4, the “A450 as % of hEphA4-SEAP-His” value amounted to 6.6% in test [1]; 6.4% in test [2]; 5.6% in test [3]; 7% in test [4]; 6.2% in test [5].
